Changes are numbered by the printed parent chain.
T1: human ecto-nucleoside triphosphate diphosphohydrolase-3 (NTPDase3) (human, UniProt O75355 1-529)
T1 construct: whole, on cells; O75355 is the entry it names for human NTPDase3; also called hENTPD3; human ENTPD3
T1 sequence (looked up): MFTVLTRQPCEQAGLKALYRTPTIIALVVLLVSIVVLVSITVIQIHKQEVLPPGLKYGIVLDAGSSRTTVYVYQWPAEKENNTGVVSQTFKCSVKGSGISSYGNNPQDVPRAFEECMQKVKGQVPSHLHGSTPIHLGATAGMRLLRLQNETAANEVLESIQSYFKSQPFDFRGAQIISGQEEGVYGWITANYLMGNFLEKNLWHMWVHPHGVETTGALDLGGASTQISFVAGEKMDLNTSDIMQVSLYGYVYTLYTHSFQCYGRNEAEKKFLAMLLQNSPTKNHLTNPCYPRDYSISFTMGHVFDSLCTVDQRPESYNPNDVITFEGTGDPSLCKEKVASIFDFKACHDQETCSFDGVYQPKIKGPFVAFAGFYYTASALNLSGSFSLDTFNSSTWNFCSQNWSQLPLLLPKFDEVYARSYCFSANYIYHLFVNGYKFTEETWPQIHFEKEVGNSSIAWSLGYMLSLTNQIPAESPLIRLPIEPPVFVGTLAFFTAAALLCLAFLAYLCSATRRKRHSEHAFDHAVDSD

B1: PBI #30 hIgG1 (antibody, V domains shown)
VH: QVQLQESGGGLIQPGGSLRLSCAASGFTSSSSDYAMSWVRQAPGKGLEWVSSISGSGGSTYYADSVKGRFTISRDNSKNTLYVQMTSLTAEDTAVYYCAKVVGYSMYDYYYHYALDVWGQGTTVTVSS
VL: QPVLTQPPSASGTPGQRVTISCSGSSSNIGSNTVNWYQQLPGTAPKLLIYSNNQRPSGVPDRFSGSKSGTSASLTISGLKTEDEAGYYCQSYDTSNVVFGGGTKVTVLG
notes: Fully human IgG1; also called clone PBI #30; original clone PBI #30 hIgG1
B2: 4F9 Hu/Ra (antibody, V domains shown)
VH: QSVEESGGRLVTPGTPLTLTCTVSGFSLSSYAMGWVRQAPGKGLEFIGIITYNGNTYYASWAKGRFPISKTSSTTVDLKMTSPTTEDTATYFCARARYGGYSTNSYYLNIWGPGTLVTVSS
VL: DVVMTQTPASVSAAVGGTVTINCQASENIYRILAWYQQKPGQRPKLLIYGASNLETGVPSRFKGSGSGTEYTLTISDLECDDAATYYCQGVLYNSNDSTFGGGTEVVVKG
B3: 8E1 Hu/Ra (antibody, V domains shown)
VH: B2 VH with T51S, N53S, T90N
VL: B2 VL with S12E, I32V, T56S, E70D, L92V, N96D, T99A
B4: 16D4 Hu/Ra (antibody, V domains shown)
VH: B2 VH with N55G
VL: B2 VL with I32V, N94D, S95N
B5: 37H1 Hu/Ra (antibody, V domains shown)
VH: B2 VH with M33V, N55A, K63E
VL: B2 VL with Y93W
B6: 42D8 Hu/Ra (antibody, V domains shown)
VH: B2 VH with G54S, S60N
VL: B2 VL with R43P
B7: 38D5 Hu/Ra (antibody, V domains shown)
VH: QELVESGGGLVQPGGSLKLSCKASGIDFNNYGISWVRQAPGKGLEWIAYKYPGFGIRNYANSVKGRFTISSDNAQNTVFLQMTSLAASDTATYFCARGARYRHDDYGALNLWGPGTLVTVSS
VL: DIVMTQTPPSVSAAVGGTVTINCQASQSVTNLLAWYQQKPGQPPKLLIYGASNLESGVPSRFRGSGSGTEFTLTISGMKAEDAATYYCQSGYYSANTFGAGTKVGIKR
B8: PBI #30af4 hIgG1 (antibody, V domains shown)
VH: B1 VH with G58V, M106V
VL: QPVLTQPPSASGTPGQRVTISCSGSSSNIGSNTVNWYQQLPGTAPKLLIYSDNQRPSGVPDRFSGSKSGTSASLTISGLKTEDEAGYYCQSDDTSNVVFGGGTKVTVL
B9: PBI #30af4 hIgG4 (antibody, V domains shown)
VH: B1 VH with G58V, M106V
VL: B8 VL
B10: 38D5 hIgG1 (antibody, V domains shown)
VH: EQQLLESGGGLVQPGGSLRLSCAASGIDFNNYGISWVRQAPGKGLEWIAYKYPGFGIRNYANSVKGRFTISSDNSKNTVYLQMNSLRAEDTAVYFCARGARYRHDDYGALNLWGPGTLVTVSS
VL: DIQMTQSPSTLSASVGDRVTITCQASQSVTNLLAWYQQKPGKPPKLLIYGASNLESGVPSRFSGSGSGTEFTLTISSLQPDDFATYYCQSGYYSANTFGPGTKVDIK
B11: 38D5 hIgG4 (antibody, V domains shown)
VH: B10 VH
VL: B10 VL
B12: 3E9 Hu/Ra (antibody, V domains shown)
VH: QSLEESGGDLVKPGASLTLTCTASGFSFSSSDWICWVRQAPGKGLEWIACIYAGSIGGAYFASWVNGRFTISRASSTTVTLQMTSLTAADTATYFCARSSSNGRLKLDQFDLWGPGTLVTVSS
VL: AYDMTQTPASVEVAVGGTVTINCQASQSIGGWLSWYRQKPGQPPSLLIYKASTLASGVSSRFSGTGSRTHFTLTINGVQCADAATYYCQQGSAADVANTFGGGTEVVVKG
B13: 38D12 Hu/Ra (antibody, V domains shown)
VH: QSVEESGGRLVTPGTPLTLTCTVSGFSLSSYVINWVRQAPGKGLEWIGTISSSGSTYYASWAKGRFTISTTSSTTVDLKITSPTTEDTATYFCARGADGAFISDYFNIWGPGTLVTVSS
VL: DIVMTQTPSSVSAAVGGTVTIKCQANENIDSWLAWYQQKPGQRPKLLIYYASTLASGVPSRFKGSGSGTEYTLTISDLECADGATYYCQSYDTISDYGVGFGGGTEVVVKG
B14: 44H5 Hu/Ra (antibody, V domains shown)
VH: QEQLEESGGDLVKPEGSLTLTCTASGFDSSSTYYMCWVRQAPGKGLEWSGCIYTGGLTYYASWAKGRFTISKTSSTTVTLQMTSLTAADTATYFCASYIGSRFYMPGFSLWGPGTLVTVSS
VL: AIVMTQTPSSKSVPVGDTVTINCQASESIYSNNRLAWFQQKPGQPPKLLIYLASTLASGVPSRFKGSGSGTQFTLTISDVVCDDAATYYCAGYKGSSTDGTAFGGGTEVVVKG

molecular target: T1, human ecto-nucleoside triphosphate …; assay: flow cytometry on CHO-hENTPD3 cells, 30 minutes at 4 °C (FIG. 1)
Protocol: FIG. 1. Affinity of PBI #30 measured by flow cytometry using human ENTPD3 (hENTPD3) positive CHO cells (stably transfected cells). PBI #30 was serially diluted as indicated (top dose 333 nM) and incubated with CHO-hENTPD3 cells for 30 minutes at 4° C., followed by secondary antibody staining (anti-human IgG (Fc specific), Alexa Fluor® 488) for 30 minutes at 4° C. and flow cytometry analysis.

Binder	Kd
B1	5.53 nM

molecular target: T1, human ecto-nucleoside triphosphate …; assay: flow cytometry on COS7-hENTPD3 cells, 30 minutes at 4 °C (FIG. 2)
Excerpt: FIG. 2. Affinity of PBI #30 measured by flow cytometry using hENTPD3 positive COS-7 cells (stably transfected cells).

Binder	Kd
B1	11.9 nM

molecular target: T1, human ecto-nucleoside triphosphate …; assay: flow cytometry on HEK293T-hENTPD3 cells, 30 minutes at 4 °C (FIG. 3)
Excerpt: FIG. 3. Affinity of PBI #30 measured by flow cytometry using hENTPD3 positive HEK293T cells (stably transfected cells).

Binder	Kd
B1	8.4 nM

molecular target: T1, human ecto-nucleoside triphosphate …; assay: cell-based or functional assay

Binder	ADCC EC50 (µg/mL), NFAT luciferase reporter Jurkat/hCD16a-158V	Enzyme Activity Inhibition Capacity: % of Maximal Inhibition	CDC % of Maximal Cytotoxicity	CDC EC50	Enzyme Activity Inhibition Capacity: EC50	ADCC fold increase in relation to parental clone at 1 µg/mL
B2	0.064 µg/mL	12%	–	–	–	–
B3	0.075 µg/mL	5%	13%	0.239 µg/mL	–	–
B4	0.053 µg/mL	9%	–	–	–	–
B5	0.044 µg/mL	9%	–	–	–	–
B6	0.072 µg/mL	12%	–	–	–	–
B7	0.104 µg/mL	44%	1%	1.73 µg/mL	0.31 µg/mL	–
B8	0.434 µg/mL	91%	–	–	0.82 µg/mL	2.8 fold
B9	–	95%	–	–	1.33 µg/mL	–
B10	0.104 µg/mL	43%	4%	0.694 µg/mL	0.22 µg/mL	1.2 fold
B1	1.44 µg/mL	76%	–	–	2.51 µg/mL	–
B11	–	41%	–	–	–	–
B12	0.044 µg/mL	6%	–	–	–	–
B13	0.059 µg/mL	9%	–	–	–	–
B14	0.045 µg/mL	15%	–	–	–	–

molecular target: T1, human ecto-nucleoside triphosphate …; assay: flow cytometry on RT4 bladder cancer cells (endogenous hENTPD3), 30 minutes at 4 °C (FIG. 4)
Excerpt: FIG. 4. Affinity of PBI #30 measured by flow cytometry using RT4 bladder cancer cells that endogenously express hENTPD3.

Binder	Kd
B1	10.1 nM

molecular target: T1, human ecto-nucleoside triphosphate …; assay: flow cytometry on COS7-hENTPD3 cells, 2 hours at 37 °C (FIG. 19)
Excerpt: (§1) FIG. 19. Affinity of the fully human anti-hENTPD3 monoclonal antibody PBI #30 hIgG1 measured by flow cytometry using CHO-hENTPD3 and COS7-hENTPD3 cells. Generally, FIG. 19 and following are directed to analyses of anti-hENTPD3 monoclonal antibody clones that have been further optimized exemplary (e.g., affinity maturation and isotype switching for PBI #30 and humanization of 8E1 and 38D5) and related detection methods.

Binder	Kd
B1	1.82 nM

molecular target: T1, human ecto-nucleoside triphosphate …; assay: flow cytometry on CHO-hENTPD3 cells, 2 hours at 37 °C (FIG. 19)
Excerpt: as §1

Binder	Kd
B1	2.96 nM

molecular target: T1, human ecto-nucleoside triphosphate …; assay: cell-based or functional assay; remark: another data set of the same source

Binder	EC50 of hENTPD3 enzyme activity inhibition, CHO-hENTPD3 cells, antibody 30 minutes	enzyme activity inhibition capacity, maximal inhibition	ADCC EC50, NFAT luciferase reporter Jurkat/hCD16a-158V
B7	15.9 µg/mL	~40%	–
B8	–	~100%	–
B9	–	~100%	–
B1	17.3 µg/mL	–	0.092 µg/mL
